Measured values taken from PMC4626869, “Subcellular trafficking of guanylyl cyclase/natriuretic peptide receptor-A with concurrent generation of intracellular cGMP” (Bioscience Reports, 2015).
Where no end group is shown, it is not given here.

Biological target: T1, enhanced GFP-tagged guanylyl cyclase/natriuretic peptide receptor-A (eGFP–NPRA fusion protein) (mouse, UniProt P18293 29-1057)
T1 sequence (looked up): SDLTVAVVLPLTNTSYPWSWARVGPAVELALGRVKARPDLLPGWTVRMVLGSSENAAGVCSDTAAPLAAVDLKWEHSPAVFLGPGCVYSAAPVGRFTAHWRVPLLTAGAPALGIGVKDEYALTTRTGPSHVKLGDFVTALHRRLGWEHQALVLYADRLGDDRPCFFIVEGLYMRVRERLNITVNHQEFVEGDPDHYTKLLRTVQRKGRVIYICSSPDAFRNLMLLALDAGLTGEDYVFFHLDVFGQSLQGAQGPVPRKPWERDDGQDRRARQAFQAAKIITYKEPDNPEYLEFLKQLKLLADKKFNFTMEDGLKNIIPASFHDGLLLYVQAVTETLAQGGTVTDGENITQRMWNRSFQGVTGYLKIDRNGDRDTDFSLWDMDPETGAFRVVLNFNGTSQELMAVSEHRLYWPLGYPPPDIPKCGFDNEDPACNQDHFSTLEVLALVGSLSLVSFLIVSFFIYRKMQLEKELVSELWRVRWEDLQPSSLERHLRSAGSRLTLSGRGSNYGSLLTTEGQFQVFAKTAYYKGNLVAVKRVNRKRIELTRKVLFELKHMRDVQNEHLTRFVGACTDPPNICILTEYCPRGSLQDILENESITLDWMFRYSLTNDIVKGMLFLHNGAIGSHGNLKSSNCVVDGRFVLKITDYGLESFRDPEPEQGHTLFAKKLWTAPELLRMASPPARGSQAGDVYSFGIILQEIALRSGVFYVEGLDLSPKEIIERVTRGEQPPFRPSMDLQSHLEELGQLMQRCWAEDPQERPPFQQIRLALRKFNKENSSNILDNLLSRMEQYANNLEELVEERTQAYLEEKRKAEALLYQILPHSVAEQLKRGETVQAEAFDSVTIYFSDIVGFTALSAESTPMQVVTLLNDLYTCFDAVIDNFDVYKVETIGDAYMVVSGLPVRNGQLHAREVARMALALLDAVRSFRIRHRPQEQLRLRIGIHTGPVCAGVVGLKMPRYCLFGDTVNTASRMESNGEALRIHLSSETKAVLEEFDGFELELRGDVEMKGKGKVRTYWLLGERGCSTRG
Assay: cell-based or functional assay

## SLRRSSCFGGRIDRIGAQSGLGCNSFRY (ligand, rat, UniProt P01161 123-150, looked up, ends and bridges not checked; also: 125I label (residue not given here)) [Atrial natriuretic peptide (ANP), 125I-labelled]
  cGMP immunofluorescence intensity in intact cells treated with 100 nM ANP (unlabelled) for 1, 5, 10, 15 and 30 min, fold over untreated cells: 27 fold
